From US20260125469A1 (Hoffmann-La Roche, published 2026)
Read-outs that look alike come from different tables or passages of the source.

How the values were obtained:
[1] = molecular target: T1, Human CD3ε stalk-Fc(knob)-Avi/CD3δ stalk-Fc(hole) (human); assay: SPR, TCB captured by anti-PG antibody, antigen as analyte, 25°C
T1 construct: Heterodimer of CD3 delta and CD3 epsilon ectodomains fused to human Fc with knob-into-hole; also called human CD3ε/δ; CD3 antigen
Text: (§1) For affinity measurements, TCB molecules were captured on a C1 sensorchip (GE Healthcare) surface with immobilized anti-Fc(P329G) IgG (an antibody that specifically binds human IgG₁ Fc(P329G); “anti-PG antibody”—see WO 2017/072210, incorporated herein by reference). The experimental setup is schematically depicted in FIG. 3. Capture IgG was coupled to the sensorchip surface by direct immobilization of around 400 resonance units (RU) using the standard amine coupling kit (GE Healthcare Life Sciences).
(§2) Kinetic constants were derived using the Biacore T200 Evaluation Software (GE Healthcare Life Sciences), to fit rate equations for 1:1 Langmuir binding by numerical integration. The half-life (t_{1/2}) of the interaction was calculated using the formula t_{1/2}=ln2/koff.
(§3) To analyze the interaction to CD3, TCB molecules were captured for 240 s at 25 nM with a flow rate of 10 μl/min. Human and cynomolgus CD3F stalk-Fc(knob)-Avi/CD36-stalk-Fc(hole) were passed at a concentration of 0.14-100 nM with a flow rate of […] through the flow cells for 240 s. The dissociation was monitored for 800 s.

[2] = molecular target: T2, Cynomolgus CD3ε stalk-Fc(knob)-Avi/CD3δ stalk-Fc(hole) (cynomolgus); assay: as above
T2 construct: also called cynomolgus CD3ε/δ
Text: as §1, §2, §3

[3] = molecular target: human CD3 on cells (CD3ε) (human, UniProt P07766 23-207); assay: cell-based or functional assay
Chain of human CD3 on cells (CD3ε) (P07766 23-207 limits assumed): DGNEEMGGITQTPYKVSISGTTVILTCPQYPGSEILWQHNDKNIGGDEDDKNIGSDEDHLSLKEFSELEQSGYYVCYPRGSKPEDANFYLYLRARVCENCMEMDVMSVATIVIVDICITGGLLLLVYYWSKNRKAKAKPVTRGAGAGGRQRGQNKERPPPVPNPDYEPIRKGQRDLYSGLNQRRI

[4] = molecular target: T1, Human CD3ε stalk-Fc(knob)-Avi/CD3δ …; assay: SPR on immobilized human CD3ε/δ after stress, relative to sample kept at -80°C pH 6
Experimental: (§4) In order to assess the effect of the deamidation site removal and its effect on the stability of the antibodies, the optimized anti-CD3 antibodies (in TCB format) were incubated for 14 days at 37° C., pH 7.4 and at 40° C., pH 6 and further analyzed by SPR for their binding capability to human CD3ε/δ. Samples stored at −80° C. pH 6 were used as reference. The reference samples and the samples stressed at 40° C. were in 20 mM His, 140 mM NaCl, pH 6.0, and the samples stressed at 37° C. in PBS, pH 7.4, all at a concentration of 1.0 mg/ml. After the stress period (14 days) samples in PBS were dialyzed back to 20 mM His, 140 mM NaCl, pH 6.0 for further analysis.
(§5) All SPR experiments were performed on a Biacore T200 instrument (GE Healthcare) at 25° C. with HBS-P+ (10 mM HEPES, 150 mM NaCl pH 7.4, 0.05% Surfactant P20) as running and dilution buffer. Biotinylated human CD3ε/δ (see Example 3, SEQ ID NOs 41 and 42) as well as biotinylated anti-huIgG (Capture Select, Thermo Scientific, #7103262100) were immobilized on a Series S Sensor Chip SA (GE Healthcare, #29104992), resulting in surface densities of at least 1000 resonance units (RU). Anti-CD3 antibodies with a concentration of 2 μg/ml were injected for 30 s at a flow rate of 5 μl/min, and dissociation was monitored for 120 s. The surface was regenerated by injecting 10 mM glycine pH 1.5 for 60 s. Bulk refractive index differences were corrected by subtracting blank injections and by subtracting the response obtained from a blank control flow cell. For evaluation, the binding response 5 seconds after injection end was taken. To normalize the binding signal, the CD3 binding was divided by the anti-huIgG response (the signal (RU) obtained upon capture of the CD3 antibody on the immobilized anti-huIgG antibody). The relative binding activity was calculated by referencing each temperature stressed sample to the corresponding, non-stressed sample.
The experiment was performed as described in Example 4, using the TCB molecules prepared in Example 7.

[5] = molecular target: T1, Human CD3ε stalk-Fc(knob)-Avi/CD3δ …; assay: SPR, TCB captured by anti-PG antibody, antigen as analyte, 25°C; remark: listed apart in the source
Text: as §1
(§6) To analyze the interaction to CD3, TCB molecules were captured for 80 s at 25 nM with a flow rate of 10 μl/min. […] The dissociation was monitored for 800 s.
as §2

[6] = molecular target: T2, Cynomolgus CD3ε stalk-Fc(knob)-Avi/CD3δ …; assay: as above; remark: listed apart in the source
Text: as §1, §6, §2

[7] = molecular target: T1, Human CD3ε stalk-Fc(knob)-Avi/CD3δ …; assay: SPR on immobilized human CD3ε/δ after stress, relative to sample kept at -80°C pH 6; remark: listed apart in the source
Experimental: as §4, §5

Binder	Kd [1]	koff [1]	kon [1]	t1/2 [1]	EC50 24 h (pM), T-cell mediated lysis of CEACAM5-expressing LS180 tumor cells [3]	EC50 48 h (pM), T-cell mediated lysis of CEACAM5-expressing LS180 tumor cells [3]	binding activity [%] after 2 weeks at pH 6.0/40°C [4]	binding activity [%] after 2 weeks at pH 7.4/37°C [4]	also measured
CEACAM5-TCB, CEACAM5 CD3 variant P035.093 (bispecific antibody, human IgG1, kappa, L234A L235A, 2+1 IgG CrossFab, inverted; human IgG1 Fc, knob-into-hole, PGLALA; also called P035.093 in CEACAM5-TCB format) heavy 1: not shown heavy 2: QVQLVQSGAEVKKPGSSVKVSCKASGFNIKDTYMHWVRQAPGQGLEWMGRIDPANGNSKYVPKFQGRVTITADTSTSTAYMELSSLRSEDTAVYYCAPFGYYVSDYAMAYWGQGTLVTVSSASTKGPSVFPLAPSSKSTSGGTAALGCLVEDYFPEPVTVSWNSGALTSGVHTFPAVLQSSGLYSLSSVVTVPSSSLGTQTYICNVNHKPSNTKVDEKVEPKSCDKTHTCPPCPAPEAAGGPSVFLFPPKPKDTLMISRTPEVTCVVVDVSHEDPEVKFNWYVDGVEVHNAKTKPREEQYNSTYRVVSVLTVLHQDWLNGKEYKCKVSNKALGAPIEKTISKAKGQPREPQVCTLPPSRDELTKNQVSLSCAVKGFYPSDIAVEWESNGQPENNYKTTPPVLDSDGSFFLVSKLTVDKSRWQQGNVFSCSVMHEALHNHYTQKSLSLSP light 1: EIVLTQSPATLSLSPGERATLSCRAGESVDIFGVGFLHWYQQKPGQAPRLLIYRASNRATGIPARFSGSGSGTDFTLTISSLEPEDFAVYYCQQTNEDPYTFGQGTKLEIKRTVAAPSVFIFPPSDRKLKSGTASVVCLLNNFYPREAKVQWKVDNALQSGNSQESVTEQDSKDSTYSLSSTLTLSKADYEKHKVYACEVTHQGLSSPVTKSFNRGEC light 2: EVQLLESGGGLVQPGGSLRLSCAASGFTFSSYAMNWVRQAPGKGLEWVSRIRSKYNNYATYYADSVKGRFTISRDDSKNTLYLQMNSLRAEDTAVYYCVRASNFPASYVSYFAYWGQGTLVTVSSASVAAPSVFIFPPSDEQLKSGTASVVCLLNNFYPREAKVQWKVDNALQSGNSQESVTEQDSKDSTYSLSSTLTLSKADYEKHKVYACEVTHQGLSSPVTKSFNRGEC	0.384 nM	0.00111 s⁻¹	2.93e+06 M⁻¹ s⁻¹	10.4 min	22 pM	14.2 pM	100%	97%	Kd [2]: 0.201 nM; koff [2]: 0.000765 s⁻¹; kon [2]: 3.8e+06 M⁻¹ s⁻¹; t1/2 [2]: 15.1 min
CEACAM5-TCB with CD3orig as CD3 binder (bispecific antibody, human IgG1, kappa, L234A L235A, also called CD3orig in CEACAM5-TCB format) heavy 1: not shown heavy 2: QVQLVQSGAEVKKPGSSVKVSCKASGFNIKDTYMHWVRQAPGQGLEWMGRIDPANGNSKYVPKFQGRVTITADTSTSTAYMELSSLRSEDTAVYYCAPFGYYVSDYAMAYWGQGTLVTVSSASTKGPSVFPLAPSSKSTSGGTAALGCLVEDYFPEPVTVSWNSGALTSGVHTFPAVLQSSGLYSLSSVVTVPSSSLGTQTYICNVNHKPSNTKVDEKVEPKSCDKTHTCPPCPAPEAAGGPSVFLFPPKPKDTLMISRTPEVTCVVVDVSHEDPEVKFNWYVDGVEVHNAKTKPREEQYNSTYRVVSVLTVLHQDWLNGKEYKCKVSNKALGAPIEKTISKAKGQPREPQVCTLPPSRDELTKNQVSLSCAVKGFYPSDIAVEWESNGQPENNYKTTPPVLDSDGSFFLVSKLTVDKSRWQQGNVFSCSVMHEALHNHYTQKSLSLSP light 1: EIVLTQSPATLSLSPGERATLSCRAGESVDIFGVGFLHWYQQKPGQAPRLLIYRASNRATGIPARFSGSGSGTDFTLTISSLEPEDFAVYYCQQTNEDPYTFGQGTKLEIKRTVAAPSVFIFPPSDRKLKSGTASVVCLLNNFYPREAKVQWKVDNALQSGNSQESVTEQDSKDSTYSLSSTLTLSKADYEKHKVYACEVTHQGLSSPVTKSFNRGEC light 2: EVQLLESGGGLVQPGGSLRLSCAASGFTFSTYAMNWVRQAPGKGLEWVSRIRSKYNNYATYYADSVKGRFTISRDDSKNTLYLQMNSLRAEDTAVYYCVRHGNFGNSYVSWFAYWGQGTLVTVSSASVAAPSVFIFPPSDEQLKSGTASVVCLLNNFYPREAKVQWKVDNALQSGNSQESVTEQDSKDSTYSLSSTLTLSKADYEKHKVYACEVTHQGLSSPVTKSFNRGEC	3.37 nM	0.00281 s⁻¹	851000 M⁻¹ s⁻¹	4.1 min	244 pM	115 pM	95%	66%	
TYRP1-TCB with anti-CD3 antibody clone P035.093 (bispecific antibody, human IgG1, kappa, L234A L235A, human IgG1 Fc, knob-into-hole, P329G L234A L235A; also called P035.093 in TCB format) heavy 1: not shown heavy 2: QVQLVQSGAEVKKPGASVKVSCKASGFNIKDYFLHWVRQAPGQGLEWMGWINPDNGNTVYAQKFQGRVTMTADTSTSTVYMELSSLRSEDTAVYYCTRRDYTYEKAALDYWGQGTLVTVSSASTKGPSVFPLAPSSKSTSGGTAALGCLVEDYFPEPVTVSWNSGALTSGVHTFPAVLQSSGLYSLSSVVTVPSSSLGTQTYICNVNHKPSNTKVDEKVEPKSCDKTHTCPPCPAPEAAGGPSVFLFPPKPKDTLMISRTPEVTCVVVDVSHEDPEVKFNWYVDGVEVHNAKTKPREEQYNSTYRVVSVLTVLHQDWLNGKEYKCKVSNKALGAPIEKTISKAKGQPREPQVCTLPPSRDELTKNQVSLSCAVKGFYPSDIAVEWESNGQPENNYKTTPPVLDSDGSFFLVSKLTVDKSRWQQGNVFSCSVMHEALHNHYTQKSLSLSP light 1: DIQMTQSPSSLSASVGDRVTITCRASGNIYNYLAWYQQKPGKVPKLLIYDAKTLADGVPSRFSGSGSGTDFTLTISSLQPEDVATYYCQHFWSLPFTFGQGTKLEIKRTVAAPSVFIFPPSDRKLKSGTASVVCLLNNFYPREAKVQWKVDNALQSGNSQESVTEQDSKDSTYSLSSTLTLSKADYEKHKVYACEVTHQGLSSPVTKSFNRGEC light 2: EVQLLESGGGLVQPGGSLRLSCAASGFTFSSYAMNWVRQAPGKGLEWVSRIRSKYNNYATYYADSVKGRFTISRDDSKNTLYLQMNSLRAEDTAVYYCVRASNFPASYVSYFAYWGQGTLVTVSSASVAAPSVFIFPPSDEQLKSGTASVVCLLNNFYPREAKVQWKVDNALQSGNSQESVTEQDSKDSTYSLSSTLTLSKADYEKHKVYACEVTHQGLSSPVTKSFNRGEC									Kd [5]: 0.41 nM; koff [5]: 0.00153 s⁻¹; kon [5]: 3.75e+06 M⁻¹ s⁻¹; t1/2 [5]: 7.55 min; Kd [6]: 0.21 nM; koff [6]: 0.00104 s⁻¹; kon [6]: 4.89e+06 M⁻¹ s⁻¹; t1/2 [6]: 11.1 min; binding activity [%] after 2 weeks at pH 6.0/40°C [7]: 97%; binding activity [%] after 2 weeks at pH 7.4/37°C [7]: 95%
